Laboratory results reported in patent US20240294646A1.

Tests used:
FcγRIIaR = FcγRIIaR (UniProt P12318); test: SPR (Protocol 2), antibody captured on immobilised HER2, receptor as analyte
FcγRIIb [1] = target: FcγRIIb (UniProt P31994); test: as above
FcγRIIb [2] = target: FcγRIIb (UniProt P31994); test: SPR (Protocol 2); ratio of the fold for FcγRIIb to the fold for FcγRIIaR
[3] = target: Soluble FcγRIIb extracellular domain with C-terminal 10xHis tag (UniProt P31994); test: SPR, antibody captured on HER2, receptor as analyte; affinity fold over wild-type v16463
[4] = target: Soluble FcγRIIaR extracellular domain with C-terminal 10xHis tag (UniProt P12318); test: as above
[5] = target: Soluble FcγRIIb extracellular domain with C-terminal 10xHis tag (UniProt P31994); test: SPR; IIb-Fold / IIaR-Fold (FcγRIIb over FcγRIIaR)
[6] = target: Soluble FcγRIIb extracellular domain with C-terminal 10xHis tag (UniProt P31994); test: SPR; FcγRIIb affinity fold against control v27294
[7] = target: Soluble FcγRIIb extracellular domain with C-terminal 10xHis tag (UniProt P31994); test: SPR; IIb/IIaR selectivity against control v27294

FcγRIIb, sequence (P31994 43-217): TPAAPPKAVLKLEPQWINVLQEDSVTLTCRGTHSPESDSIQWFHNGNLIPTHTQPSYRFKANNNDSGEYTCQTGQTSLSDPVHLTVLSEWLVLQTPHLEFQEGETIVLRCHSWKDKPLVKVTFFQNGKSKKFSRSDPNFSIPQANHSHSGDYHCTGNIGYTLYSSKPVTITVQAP
Soluble FcγRIIaR extracellular domain with C-terminal 10xHis tag, sequence (P12318 other isoform, or with tags, fused parts or gaps): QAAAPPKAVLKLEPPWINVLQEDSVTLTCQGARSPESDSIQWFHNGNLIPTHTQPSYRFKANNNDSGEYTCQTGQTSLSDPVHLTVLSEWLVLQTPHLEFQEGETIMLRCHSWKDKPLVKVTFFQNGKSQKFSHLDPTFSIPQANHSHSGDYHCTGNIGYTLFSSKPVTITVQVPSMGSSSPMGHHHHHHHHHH
FcγRIIaR, sequence (P12318 34-217): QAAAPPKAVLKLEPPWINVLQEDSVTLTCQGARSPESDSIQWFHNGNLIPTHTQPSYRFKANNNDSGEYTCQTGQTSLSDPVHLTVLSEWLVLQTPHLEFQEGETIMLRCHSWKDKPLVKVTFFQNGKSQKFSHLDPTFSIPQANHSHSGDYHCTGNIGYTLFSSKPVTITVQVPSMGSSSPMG
Soluble FcγRIIb extracellular domain with C-terminal 10xHis tag, sequence (P31994 other isoform, or with tags, fused parts or gaps): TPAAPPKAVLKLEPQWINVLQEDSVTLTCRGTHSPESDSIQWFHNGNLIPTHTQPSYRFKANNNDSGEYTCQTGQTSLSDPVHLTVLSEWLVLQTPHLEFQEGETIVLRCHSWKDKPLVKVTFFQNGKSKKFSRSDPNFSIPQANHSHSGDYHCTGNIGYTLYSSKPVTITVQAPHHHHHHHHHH

| Substance | IIaR-Fold (fold change in affinity over wild-type) (fold over wild-type) (FcγRIIaR) | IIb-Fold (fold change in affinity over wild-type) (fold over wild-type) (FcγRIIb [1]) | IIb/IIaR Selectivity (IIb-Fold/IIaR-Fold) (FcγRIIb [2]) | IIb-Fold [3] [fold] | IIaR-fold [4] [fold] | IIb Selectivity [5] [fold] | IIb-Fold wrt Control [6] [fold] | IIb Selectivity Improvement wrt Control [7] [fold] |
| --- | --- | --- | --- | --- | --- | --- | --- | --- |
| Variant v26712, A_D270A_strat2, one-armed trastuzumab antibody | – | – | – | 49.9 | 3.8 | 13 | 0.5 | 1 |
| Variant v26715, A_D270I_strat2, one-armed trastuzumab antibody | – | – | – | 57.9 | 3.8 | 15.2 | 0.6 | 1.1 |
| Variant v26723, A_D270E_strat2, one-armed trastuzumab antibody | – | – | – | 109 | 7.3 | – | 1.2 | 1.1 |
| Variant v26730, A_P271V_strat2, one-armed trastuzumab antibody | – | – | – | 54.4 | 3.6 | – | 0.6 | 1.1 |
| Variant v26731, A_P271L_strat2, one-armed trastuzumab antibody | – | – | – | 66.6 | 4.5 | 14.7 | 0.7 | 1.1 |
| Variant v26732, A_P271I_strat2, one-armed trastuzumab antibody | – | – | – | 56.9 | 4.4 | 12.9 | 0.6 | – |
| Variant v26734, A_P271W_strat2, one-armed trastuzumab antibody | – | – | – | 52.5 | 4.3 | 12.3 | 0.6 | 0.9 |
| Variant v26741, A_P271E_strat2, one-armed trastuzumab antibody | – | – | – | 59.3 | 5.1 | 11.7 | 0.6 | 0.9 |
| Variant v26744, A_P271H_strat2, one-armed trastuzumab antibody | – | – | – | 59.3 | 3.9 | 15.1 | 0.6 | 1.1 |
| Variant v26746, A_E272A_strat2, one-armed trastuzumab antibody | – | – | – | 70.8 | 4.5 | 15.9 | 0.8 | 1.2 |
| Variant v26748, A_E272L_strat2, one-armed trastuzumab antibody | – | – | – | 81.3 | 5.3 | 15.2 | 0.9 | 1.1 |
| Variant v26750, A_E272F_strat2, one-armed trastuzumab antibody | – | – | – | 61.2 | 4.5 | 13.5 | 0.7 | 1 |
| Variant v26753, A_E272T_strat2, one-armed trastuzumab antibody | – | – | – | 62.8 | 4.3 | 14.7 | 0.7 | 1.1 |
| Variant v26754, A_E272S_strat2, one-armed trastuzumab antibody | – | – | – | 61 | 4.1 | 14.7 | 0.7 | 1.1 |
| Variant v26757, A_E272D_strat2, one-armed trastuzumab antibody | – | – | – | 66.6 | 4.9 | 13.5 | 0.7 | 1 |

The next lines start with the values.

| IIaR-Fold (fold change in affinity over wild-type) (fold over wild-type) (FcγRIIaR) | IIb-Fold (fold change in affinity over wild-type) (fold over wild-type) (FcγRIIb [1]) | IIb/IIaR Selectivity (IIb-Fold/IIaR-Fold) (FcγRIIb [2]) | IIb-Fold [3] [fold] | IIaR-fold [4] [fold] | IIb Selectivity [5] [fold] | IIb-Fold wrt Control [6] [fold] | IIb Selectivity Improvement wrt Control [7] [fold] | Substance |
| --- | --- | --- | --- | --- | --- | --- | --- | --- |
| 0.9 | 2.1 | 2.4 | – | – | – | – | – | Variant 16490 (chain A: G236D / chain B: G236D), one-armed trastuzumab antibody, Scaffold 2 |
| 0.3 | 0.8 | 3.1 | – | – | – | – | – | Variant 16493 (chain A: G236N / chain B: G236N), one-armed trastuzumab antibody, Scaffold 2 |
| 0.04 | 0.2 | 4.5 | – | – | – | – | – | Variant 19503 (chain A: G236N_G237A / chain B: G236N_G237A), one-armed trastuzumab antibody, Scaffold 2 |
| 0.05 | 0.2 | 3.3 | – | – | – | – | – | Variant 19504 (chain A: G236N_G237F / chain B: G236N_G237F), one-armed trastuzumab antibody, Scaffold 2 |
| 1.8 | 0.8 | 0.4 | – | – | – | – | – | Variant 19507 (chain A: G236E / chain B: G236E), one-armed trastuzumab antibody, Scaffold 2 |
| – | – | – | 86.7 | 6.4 | 13.5 | 0.9 | 1 | Variant v26716, A_D270F_strat2, one-armed trastuzumab antibody |
| – | – | – | 53.5 | 3.7 | 14.5 | 0.6 | 1.1 | Variant v26717, A_D270W_strat2, one-armed trastuzumab antibody |
| – | – | – | 54.6 | 4.5 | 12.1 | 0.6 | 0.9 | Variant v26718, A_D270Y_strat2, one-armed trastuzumab antibody |
| – | – | – | 64.2 | 4.9 | 13.2 | 0.7 | 1 | Variant v26719, A_D270T_strat2, one-armed trastuzumab antibody |
| – | – | – | 49.5 | 3.9 | 12.7 | 0.5 | 0.9 | Variant v26720, A_D270S_strat2, one-armed trastuzumab antibody |
| – | – | – | 51.7 | 3.6 | 14.6 | 0.6 | 1.1 | Variant v26721, A_D270Q_strat2, one-armed trastuzumab antibody |
| – | – | – | 67.4 | 4 | 16.7 | 0.7 | 1.3 | Variant v26722, A_D270N_strat2, one-armed trastuzumab antibody |
| – | – | – | 61.7 | 4.1 | 14.9 | 0.7 | 1.1 | Variant v26726, A_D270H_strat2, one-armed trastuzumab antibody |
| – | – | – | 65.4 | 4.8 | 13.5 | 0.7 | – | Variant v26728, A_P271G_strat2, one-armed trastuzumab antibody |
| – | – | – | 56.1 | 4 | 14.1 | 0.6 | 1.1 | Variant v26738, A_P271Q_strat2, one-armed trastuzumab antibody |
| – | – | – | 50.9 | 3.4 | 14.9 | 0.5 | 1.1 | Variant v26739, A_P271N_strat2, one-armed trastuzumab antibody |
| – | – | – | 50.5 | 3.4 | 14.9 | 0.5 | 1.1 | Variant v26740, A_P271D_strat2, one-armed trastuzumab antibody |
| – | – | – | 47.1 | 4.4 | 10.7 | 0.5 | 0.8 | Variant v26742, A_P271R_strat2, one-armed trastuzumab antibody |
| – | – | – | 55.7 | 4.3 | 12.9 | 0.6 | 1 | Variant v26743, A_P271K_strat2, one-armed trastuzumab antibody |
| – | – | – | 51.6 | 4.5 | 11.6 | 0.6 | 0.9 | Variant v26745, A_E272G_strat2, one-armed trastuzumab antibody |
| – | – | – | 83.8 | 6.1 | 13.7 | 0.9 | 1 | Variant v26749, A_E272I_strat2, one-armed trastuzumab antibody |
| – | – | – | 57.6 | 3.6 | 15.8 | 0.6 | 1.2 | Variant v26756, A_E272N_strat2, one-armed trastuzumab antibody |
| – | – | – | 74.1 | 4.9 | 15.3 | 0.8 | 1.1 | Variant v26760, A_E272H_strat2, one-armed trastuzumab antibody |
